Experimental data: paper PMC7901475

Target: T1, PsdR (Pseudomonas aeruginosa PAO1?) (UniProt Q9HVS2)
T1 sequence: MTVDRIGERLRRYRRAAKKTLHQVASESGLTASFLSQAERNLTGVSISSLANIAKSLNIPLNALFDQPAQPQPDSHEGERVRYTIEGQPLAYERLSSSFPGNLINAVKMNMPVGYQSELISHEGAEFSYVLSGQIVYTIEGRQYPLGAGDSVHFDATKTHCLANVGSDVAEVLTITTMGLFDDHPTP
Experiment: EMSA
Details: EMSA: 0.5 nM Cy5 probe, 10 mM Tris-HCl pH 8, 50 mM KCl, 10 mM MgCl2, 10% glycerol, 0.1 mg/ml BSA, 25 ng/ul poly(dI-dC), 15 min at 25 C; competition with 100 nM …

Sequence	binding
CCCGAACCCCTATTTTTAAGTGTGACTGAAAATTTGTTTTGACCTGAATCAGTTCTCGACTTAAATTTCAGCCCGGTCCAGACGAGGAGAACA (double strand) [pPA4498 (mdpA promoter) half-site mutant]	binds more weakly
CCCGAACCCCTATTTTTAAGTGTGACTGAAAATTTGTTTTGACCTGAATTTAAGCTCGACTTAAATTTCAGCCCGGTCCAGACGAGGAGAACA (double strand) [pPA4498 (mdpA promoter) wild type]	binds
